One substance from article PMC8416954 can be followed below.

Test [1] has as its target ectodomain of human syndecan-4 (natural isoform 2 of SDC-4) (human). Nature of the test: SEC-MALS. On the technique in general: SEC sorts molecules by how far they enter the pores of the column.
Test [2] shares this target. Nature of the test: ion mobility mass spectrometry.

Usually stoichiometry N stands for a count of units in the complex or per binding partner. With “ectodomain of human syndecan-4 (natural isoform 2 of SDC-4) (domain or fragment)”, the stoichiometry N in test [1] and in test [2] was 2 each time.
